In patent publication US20250361295A1:
Blank lines part the entries; values can stand above or below the substance they belong to.

What was measured:
human LILRB4 (human) [1] = molecular target: human LILRB4 (human) (UniProt Q8NHJ6); test: competitive FACS; competition with IO-202
human LILRB4 (human) [2] = molecular target: human LILRB4 (human) (UniProt Q8NHJ6); test: FACS
hLILRB3 (human) = hLILRB3 (human) (UniProt O75022); test: FACS; isotype control
[3] = molecular target: human LILRA6 protein (human) (UniProt Q6PI73); test: ELISA, LILRA6 protein
human LILRB4 (human) [4] = molecular target: human LILRB4 (human) (UniProt Q8NHJ6); test: cell-based or functional assay

Substance: IO-202
- IC50 (human LILRB4 (human) [1]): 3.74 nM
- EC50 (human LILRB4 (human) [2]): 1.31 nM

- EC50 (hLILRB3 (human)): 42 nM
Substance: Isotype

- ELISA(OD450) [3]: 0.152 OD450
- ADCP (%) at 133.3 nM, macrophages and MV-4-11 cells (human LILRB4 (human) [4]): 2.92%
- FcγR stimulation (TNF-α, pg/mL) (human LILRB4 (human) [4]): 31.6 pg/mL
- Fold change (Compared to isotype) (human LILRB4 (human) [4]): 1 fold
Substance: Isotype (hIgG1) (antibody)
- Max cell cytotoxicity (%), ADCC on THP-1 cells (human LILRB4 (human) [4]): 2.75%
